According to patent publication US20140051834A1, “Incretin Receptor Ligand Polypeptide Fc-Region Fusion Polypeptides And Conjugates With Altered Fc-Effector Function” (Hoffman-La Roche, Inc., priority 2012, published 2014):

Experiments:
[1] = biological target: FcγRIIA-R131 (human) (UniProt P12318); assay: SPR (BIAcore T100, 25 °C); antibody immobilised, receptor as analyte, steady state fit
[2] = biological target: FcγRIIIA-V158 (human) (UniProt P08637); assay: as above
[3] = biological target: FcγRI (human) (UniProt P12314); assay: SPR (BIAcore T100, 25 °C); FcγRI captured by pentaHis antibody, antibody as analyte
FcγRI (human), sequence (P12314 16-288 limits assumed): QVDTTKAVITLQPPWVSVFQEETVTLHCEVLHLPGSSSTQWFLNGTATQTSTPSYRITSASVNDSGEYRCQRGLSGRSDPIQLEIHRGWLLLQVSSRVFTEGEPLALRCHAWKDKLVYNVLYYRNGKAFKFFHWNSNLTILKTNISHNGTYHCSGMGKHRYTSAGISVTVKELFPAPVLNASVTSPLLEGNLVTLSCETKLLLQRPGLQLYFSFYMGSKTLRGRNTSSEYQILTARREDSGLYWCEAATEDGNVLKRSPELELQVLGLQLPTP

FcγRIIA-R131 (human), sequence (P12318 36-218 H167R limits assumed): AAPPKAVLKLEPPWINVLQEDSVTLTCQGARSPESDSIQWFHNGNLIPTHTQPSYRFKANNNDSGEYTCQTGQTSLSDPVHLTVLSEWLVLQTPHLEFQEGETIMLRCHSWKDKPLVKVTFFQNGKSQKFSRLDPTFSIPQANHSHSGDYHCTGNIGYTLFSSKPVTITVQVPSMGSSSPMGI
IgG4 SPLE (antibody of Tables 1a and 1b, specificity not named), sequence (Fc): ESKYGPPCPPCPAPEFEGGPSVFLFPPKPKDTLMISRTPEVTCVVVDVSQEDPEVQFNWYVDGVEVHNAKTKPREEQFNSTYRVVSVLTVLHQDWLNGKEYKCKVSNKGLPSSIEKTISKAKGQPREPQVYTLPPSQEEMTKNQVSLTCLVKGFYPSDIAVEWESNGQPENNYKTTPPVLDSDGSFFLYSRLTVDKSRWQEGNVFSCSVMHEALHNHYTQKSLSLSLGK
FcγRIIIA-V158 (human), sequence (P08637 17-208 F176V limits assumed): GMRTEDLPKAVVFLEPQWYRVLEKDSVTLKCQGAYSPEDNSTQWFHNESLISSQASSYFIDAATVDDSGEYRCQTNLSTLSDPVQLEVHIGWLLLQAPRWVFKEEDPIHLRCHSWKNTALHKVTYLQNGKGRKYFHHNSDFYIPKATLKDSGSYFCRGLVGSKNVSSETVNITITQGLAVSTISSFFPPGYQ

Substance | Kd [1] [nM] | Kd [2] [nM] | Kd [3] [nM]
IgG1 P329A ge (antibody of Table 1a, specificity not named) | 4400 | 1800 | 8
IgG1 P329G (antibody of Tables 1a and 1b, specificity not named) |  |  | 6
IgG1 P329G ge (antibody of Table 1a, specificity not named) |  |  | 10
IgG4 SPLE (antibody of Tables 1a and 1b, specificity not named) | 10000 |  | 
anti-CD20 antibody IgG1 P329G |  |  | 5.7
